This passage reports Kd results from patent US12077566.

In this assay the target is EGFR extracellular domain (with an amino acid sequence of 25-645) (human) (UniProt P00533). Description: SPR, Biacore T200; EGFR extracellular domain on CM5 chip, rLZ-8 protein as analyte. A general note: SPR reads the build-up and loss of mass on a sensor chip optically.

A word on the Kd: it is the constant that tells how readily two partners part at equilibrium. Higher therefore signals weaker binding. In the case of “rLZ-8 (D20H/E68K) (from UniProt P14945 1-111)”, the Kd came out at 6.43 nM.
